Numbering of substitutions follows the chain as printed. Names may count otherwise.
T1: full length human 5T4 (SEQ ID NO: 1) on cells (human, UniProt Q13641 32-420)
T1 construct: Uniprot Q13641; residues 1-31 are the signal peptide; Used both for transfected HEK-293 cells and for 5T4-expressing human tumor cell lines
T1 sequence: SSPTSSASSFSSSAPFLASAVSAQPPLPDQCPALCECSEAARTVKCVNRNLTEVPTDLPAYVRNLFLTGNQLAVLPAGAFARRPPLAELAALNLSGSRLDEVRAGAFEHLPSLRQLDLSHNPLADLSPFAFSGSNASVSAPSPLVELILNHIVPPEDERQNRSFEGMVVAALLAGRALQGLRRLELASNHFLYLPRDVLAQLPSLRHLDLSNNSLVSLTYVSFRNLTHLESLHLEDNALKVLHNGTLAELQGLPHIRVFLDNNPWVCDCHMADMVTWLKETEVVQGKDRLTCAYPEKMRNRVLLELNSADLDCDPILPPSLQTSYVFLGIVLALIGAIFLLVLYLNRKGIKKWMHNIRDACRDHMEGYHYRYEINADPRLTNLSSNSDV

T2: full length cynomolgus monkey 5T4 on transfected HEK-293 cells (cynomolgus monkey, UniProt Q4R8Y9 35-420)
T2 construct: Uniprot Q4R8Y9; residues 1-34 are the signal peptide; also called cynomolgus 5T4
T2 sequence: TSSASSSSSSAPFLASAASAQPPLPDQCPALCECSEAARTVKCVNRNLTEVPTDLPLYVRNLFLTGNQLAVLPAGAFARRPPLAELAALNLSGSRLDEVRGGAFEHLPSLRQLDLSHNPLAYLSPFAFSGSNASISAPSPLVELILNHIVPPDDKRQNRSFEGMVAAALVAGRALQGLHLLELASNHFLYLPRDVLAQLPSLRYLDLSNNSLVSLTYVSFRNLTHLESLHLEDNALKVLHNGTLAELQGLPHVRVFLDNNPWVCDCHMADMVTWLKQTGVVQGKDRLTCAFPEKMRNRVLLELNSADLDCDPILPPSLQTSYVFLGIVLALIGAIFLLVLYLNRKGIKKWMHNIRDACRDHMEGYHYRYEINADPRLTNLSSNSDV

B1: IgG1-5T4-207-FEAR (antibody, V domains shown)
VH: QVQLQQWGAGLLKPSETLSLTCAVYGGSFSGYYWTWIRQPPGKGLEWIGEIDHSESTNYNPSLKSRVTISVDTSKNQFSLKLSSVTAADTAVYYCAGWFGELYHYYYGMDVWGQGTTVTVSS
VL: EIVLTQSPATLSLSPGERATLSCRASQSVSSYLAWYQQKPGQAPRLLIYDASNRATGIPARFSGSGSGTDFTLTISSLEPEDFAVYYCQQRSNWPLTFGGGTKVEIKR
notes: Monospecific, bivalent IgG1 FEAR
B2: IgG1-5T4-226-FEAR (antibody, V domains shown)
VH: B1 VH with T35S, E55G, G97A, Y103W, H104D
VL: EIVLTQSPATLSLSPGERATLSCRASQSVSSFLAWYQQKPGQAPRLLIYDASNRATGIPARFSGSGSGTDFTLTISSLEPEDFAVYYCQQRSNWPLTFGQGTRLEIK
notes: Monospecific, bivalent human IgG1 kappa with L234F, L235E, D265A, K409R (FEAR); also called IgG1-5T4-226-FEAR-FITC

How the values were obtained:
[1] = target: T1, full length human 5T4 (SEQ ID NO: 1) on …; experiment: flow cytometry, HEK-293 cells transfected with human 5T4, PE secondary [II)A]
[2] = target: T2, full length cynomolgus monkey 5T4 on …; experiment: flow cytometry, HEK-293 cells transfected with cynomolgus monkey 5T4, PE secondary [II)A]
[3] = target: T1, full length human 5T4 (SEQ ID NO: 1) on …; experiment: flow cytometry, HeLa cells, FITC secondary [I)A]
Procedure: (§1) After washing twice in staining buffer, cells were incubated in 50 µL secondary antibody at 4° C. for 30 min. […] Next, cells were washed twice in staining buffer, re-suspended in 120 µL staining buffer and analyzed on a BD LSRFortessa FACS (BD Biosciences, USA). Binding curves were analyzed using non-linear regression (sigmoidal dose-response with variable slope) using GraphPad Prism V7.02 software (GraphPad Software, San Diego, CA, USA).

[4] = target: T1, full length human 5T4 (SEQ ID NO: 1) on …; experiment: flow cytometry, HEK-293 cells transfected with human 5T4, FITC secondary [I)A]
Procedure: (§2) Experiments were performed in technical duplicate. After washing twice in staining buffer, cells were incubated in 50 µL secondary antibody at 4° C. for 30 min. […] Cells were washed twice in staining buffer, re-suspended in 30 µL staining buffer and analyzed on an iQue Screener (Intellicyt Corporation, USA). Binding curves were analyzed using non-linear regression (sigmoidal dose-response with variable slope) using GraphPad Prism V7.02 software (GraphPad Software, San Diego, CA, USA).

[5] = target: T2, full length cynomolgus monkey 5T4 on …; experiment: flow cytometry, HEK-293 cells transfected with cynomolgus monkey 5T4, FITC secondary [I)A]
Procedure: as §2

[6] = target: T1, full length human 5T4 (SEQ ID NO: 1) on …; experiment: flow cytometry, MDA-MB-231 cells, FITC secondary [I)A]
Procedure: as §1

[7] = target: T2, full length cynomolgus monkey 5T4 on …; experiment: flow cytometry, HEK-293 cells transfected with cynomolgus monkey 5T4, PE secondary [II)B]
[8] = target: T1, full length human 5T4 (SEQ ID NO: 1) on …; experiment: flow cytometry, HEK-293 cells transfected with human 5T4, PE secondary [II)B]
[9] = target: T1, full length human 5T4 (SEQ ID NO: 1) on …; experiment: flow cytometry, MDA-MB-231 cells, FITC secondary [I)C]
Procedure: Binding of CD3x5T4 bispecific and 5T4 monospecific antibodies to 5T4-positive human tumor cells. Mono- and bivalent binding of 5T4 antibodies to HeLa cells (left panels) or MDA-MB-231 cells (right panels) was determined by flow cytometry. Cells were incubated with increasing concentrations of antibodies. After secondary labelling with FITC-conjugated goat-anti-human IgG F(ab′)2, the MFI was determined by flow cytometry.
as §1

[10] = target: T1, full length human 5T4 (SEQ ID NO: 1) on …; experiment: flow cytometry, HEK-293 cells transfected with human 5T4, FITC secondary [I)B]
Procedure: as §2

[11] = target: T1, full length human 5T4 (SEQ ID NO: 1) on …; experiment: flow cytometry, HeLa cells, FITC secondary [I)C]
Procedure: as §1

Binder | EC50 (read off the curve) [1] | EC50 (read off the curve) [2] | EC50 (read off the curve) [3] | EC50 (read off the curve) [4] | EC50 (read off the curve) [5] | EC50 (read off the curve) [6] | EC50 (read off the curve) [7] | EC50 (read off the curve) [8] | EC50 (read off the curve) [9] | EC50 (read off the curve) [10] | EC50 (read off the curve) [11]
B1 | ~0.08 µg/mL | ~0.08 µg/mL | ~0.008 µg/mL | ~0.05 µg/mL | ~0.06 µg/mL | ~0.03 µg/mL | – | – | – | – | –
B2 | – | – | – | – | – | – | ~0.02 µg/mL | ~0.02 µg/mL | ~0.04 µg/mL | ~0.1 µg/mL | ~0.01 µg/mL

— patent US20230257479A1 (Genmab, published 2023)
